From paper PMC5605233, “Crystal structure of the N-terminal domain of human Timeless and its interaction with Tipin” (Nucleic Acids Research, 2017)

Assays:
[1] = molecular target: human Tipin, N-terminal 10xHis tag, co-expressed with Timeless (human) (UniProt Q9BVW5); experiment: native MS + SEC-MALS; purified Timeless-Tipin complex; nanoESI-MS in 0.20 M ammonium acetate pH 7.0, 5-10 μM; SEC-MALLS
[2] = molecular target: the molecule itself; experiment: SEC-MALS; Superdex 200 Increase 10/300, 25°C, 1-2 mg/ml (100 μl injection), 25 mM Hepes 7.2, 150 mM KCl, 50 mM Arginine, 50 mM Glutamate

Sequence of human Tipin, N-terminal 10xHis tag, co-expressed with Timeless (human) (Q9BVW5 whole entry): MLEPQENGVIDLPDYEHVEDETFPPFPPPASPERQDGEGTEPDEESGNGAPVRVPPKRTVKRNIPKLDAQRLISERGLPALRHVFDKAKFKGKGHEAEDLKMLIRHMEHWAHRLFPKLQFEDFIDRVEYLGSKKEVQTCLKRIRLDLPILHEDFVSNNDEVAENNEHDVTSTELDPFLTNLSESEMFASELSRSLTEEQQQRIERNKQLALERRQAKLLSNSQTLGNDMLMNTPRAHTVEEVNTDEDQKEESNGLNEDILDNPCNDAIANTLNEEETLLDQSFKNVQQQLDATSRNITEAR
Sequence of human Timeless, full-length, N-terminal twin-strep tag, co-expressed with Tipin (Q9UNS1 whole entry): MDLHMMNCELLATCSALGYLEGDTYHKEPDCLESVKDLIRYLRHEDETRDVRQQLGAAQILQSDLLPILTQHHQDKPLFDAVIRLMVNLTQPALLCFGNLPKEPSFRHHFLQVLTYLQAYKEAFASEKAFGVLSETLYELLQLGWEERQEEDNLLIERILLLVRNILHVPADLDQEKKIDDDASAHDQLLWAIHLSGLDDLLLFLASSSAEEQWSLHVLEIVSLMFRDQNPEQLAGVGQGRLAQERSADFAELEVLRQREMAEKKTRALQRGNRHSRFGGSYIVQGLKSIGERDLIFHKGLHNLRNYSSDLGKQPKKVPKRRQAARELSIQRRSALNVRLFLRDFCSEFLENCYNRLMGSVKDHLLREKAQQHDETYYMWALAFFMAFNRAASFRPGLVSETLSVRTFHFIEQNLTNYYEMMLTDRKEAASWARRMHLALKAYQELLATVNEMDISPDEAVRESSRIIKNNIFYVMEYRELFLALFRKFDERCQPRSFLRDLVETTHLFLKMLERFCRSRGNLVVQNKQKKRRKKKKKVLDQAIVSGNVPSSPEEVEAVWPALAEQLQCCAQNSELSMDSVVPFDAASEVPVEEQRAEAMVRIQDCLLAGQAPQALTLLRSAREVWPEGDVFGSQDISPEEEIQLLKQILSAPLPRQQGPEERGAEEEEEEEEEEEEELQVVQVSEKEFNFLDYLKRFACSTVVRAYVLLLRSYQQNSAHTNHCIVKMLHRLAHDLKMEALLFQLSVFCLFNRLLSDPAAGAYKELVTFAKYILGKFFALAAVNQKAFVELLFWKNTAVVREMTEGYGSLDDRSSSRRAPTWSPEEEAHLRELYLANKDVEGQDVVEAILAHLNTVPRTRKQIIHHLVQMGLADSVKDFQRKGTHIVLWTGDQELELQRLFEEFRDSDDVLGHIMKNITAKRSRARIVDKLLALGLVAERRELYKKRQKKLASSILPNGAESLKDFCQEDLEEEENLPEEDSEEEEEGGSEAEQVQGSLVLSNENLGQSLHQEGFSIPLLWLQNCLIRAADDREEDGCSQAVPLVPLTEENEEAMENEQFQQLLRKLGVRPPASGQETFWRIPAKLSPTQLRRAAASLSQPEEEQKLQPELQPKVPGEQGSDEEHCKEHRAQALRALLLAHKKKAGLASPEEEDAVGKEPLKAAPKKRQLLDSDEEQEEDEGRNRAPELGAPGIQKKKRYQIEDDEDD

stoichiometry N (Timeless:Tipin) [1]	Molecule	stoichiometry N [2]
1	human Timeless, full-length, N-terminal twin-strep tag, co-expressed with Tipin (from UniProt Q9UNS1 1-1208) (natural protein)	–
–	TimN(Δ239-330): Timeless 1-463 with residues 239-330 replaced by the linker GSTGST (domain or fragment, human, human Timeless, residues 1-238; 6-residue linker in place of residues 239-330; human Timeless, residues 331-463; Dimer in solution and in the crystal; the authors think the dimer is likely an artifact of construct design; also called Timeless(1-463_(Δ239-330)); source: E. coli Rosetta2(DE3), purified (Ni-NTA, HiTrap Q, SEC)) MDLHMMNCELLATCSALGYLEGDTYHKEPDCLESVKDLIRYLRHEDETRDVRQQLGAAQILQSDLLPILTQHHQDKPLFDAVIRLMVNLTQPALLCFGNLPKEPSFRHHFLQVLTYLQAYKEAFASEKAFGVLSETLYELLQLGWEERQEEDNLLIERILLLVRNILHVPADLDQEKKIDDDASAHDQLLWAIHLSGLDDLLLFLASSSAEEQWSLHVLEIVSLMFRDQNPEQLAGVGGSTGSTQRRSALNVRLFLRDFCSEFLENCYNRLMGSVKDHLLREKAQQHDETYYMWALAFFMAFNRAASFRPGLVSETLSVRTFHFIEQNLTNYYEMMLTDRKEAASWARRMHLALKAYQELLATVNEMDISPDEAVRE	2
